The target of the data set is PTBP1 (hsPTBP1) (Homo sapiens) (UniProt P26599). Nature of the data set: EMSA. Particulars: EMSA in RBB: 10 mM sodium cacodylate pH 7.0, 100 mM NaCl, 1 mM MgCl2, 1 mM DTT, 0.1 ug/uL BSA, 0.1 ug/uL yeast tRNA, 0.4 U/uL RNasin, 1 U/uL heparin …. (A gel shift assay detects complexes by their altered migration in electrophoresis.)
Sequence of PTBP1 (hsPTBP1) (Homo sapiens) (P26599 whole entry): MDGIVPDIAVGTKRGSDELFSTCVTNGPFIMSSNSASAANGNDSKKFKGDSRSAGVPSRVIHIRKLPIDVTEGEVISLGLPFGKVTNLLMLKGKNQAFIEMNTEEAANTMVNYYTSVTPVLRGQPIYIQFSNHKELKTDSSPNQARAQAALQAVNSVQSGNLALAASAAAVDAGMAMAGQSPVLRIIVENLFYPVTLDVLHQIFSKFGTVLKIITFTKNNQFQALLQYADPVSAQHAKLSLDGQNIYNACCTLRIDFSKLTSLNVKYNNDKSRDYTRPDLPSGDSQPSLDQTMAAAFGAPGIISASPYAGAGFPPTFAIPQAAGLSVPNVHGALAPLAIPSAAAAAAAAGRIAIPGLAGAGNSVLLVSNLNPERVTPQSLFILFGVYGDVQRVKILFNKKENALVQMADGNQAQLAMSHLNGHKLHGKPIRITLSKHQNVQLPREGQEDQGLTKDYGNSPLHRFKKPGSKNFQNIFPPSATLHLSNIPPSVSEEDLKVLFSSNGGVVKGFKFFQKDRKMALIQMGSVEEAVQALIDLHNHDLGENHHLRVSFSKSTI

On to “GGGGUUCCUCCCCUCCAUCUUCCCACACCCAGUCACCAGCACUGUAUUUUCUGUCACCAAGACAAUGAUUUCUUGUUAUUGAGGCUGUUGCUUUUGUGGAUGUG [CPA1]”, for which the binding result is given as “no binding”. “GGGUCUCCUUUCAGCCUGCUUCAGGAAUGAGCUUGUGGAGCCCCGGAGAGAAACUCCAAAACAAUCUGACGUCUUCUUUAGACAUUCCAAGCCCCCAAACCGAUCAGUGUAC [FRAGT7]”: the binding result is “no binding”.

Values taken from PMC10035508.
